Assay results as given in patent publication US20110165161A1, “ANTI-EPCAM ANTIBODIES THAT INDUCE APOPTOSIS OF CANCER CELLS AND METHODS USING SAME” (priority 2009, published 2011).
Numbering of substitutions follows the chain as printed.

How the values were obtained:
[1] = biological target: T1, human EpCAM (epithelial cell adhesion/activating molecule) (human, UniProt P16422 24-314); test: cell-based or functional assay
T1 sequence: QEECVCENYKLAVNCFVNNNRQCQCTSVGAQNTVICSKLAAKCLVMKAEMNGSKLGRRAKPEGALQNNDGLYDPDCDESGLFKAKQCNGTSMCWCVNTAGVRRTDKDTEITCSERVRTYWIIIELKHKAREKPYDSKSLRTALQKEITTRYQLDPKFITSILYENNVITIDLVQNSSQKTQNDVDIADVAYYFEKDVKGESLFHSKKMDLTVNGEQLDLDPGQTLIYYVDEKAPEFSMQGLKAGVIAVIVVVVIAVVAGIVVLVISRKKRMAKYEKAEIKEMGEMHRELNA

[2] = biological target: T1, human EpCAM (epithelial cell …); test: cell-based or functional assay; remark: listed apart in the source
[3] = biological target: T1, human EpCAM (epithelial cell …); test: flow cytometry, CHO/EpCAM cells, 0.1 µg/ml antibody
Description: A 300× dilution of human cell hyper-immune serum (HPS 300×) was used as binding positive control for both cell lines here. After 1 hr incubation at 4° C., cells were washed twice with 200 μl FACS buffer (1×PBS containing 1% FBS), stained with 100 μl of 1 μg/ml goat-anti-mouse IgG-PE (Southern Biotech, Cat. No. 1032-09) in FACS buffer and then incubated at 4° C. for 30 min. Cells were washed thrice with FACS buffer and analyzed by flow cytometry (BD LSR, BD Life Sciences).

EGFI-Cr1 N43A = biological target: T2, EGFI-Cr1 N43A (human, UniProt P16422 24-63); test: direct ELISA, coated EGFI-Cr1 fusion, 0.1 µg/ml antibody
T2 construct: not shown: the constant region of human immunoglobulin gamma 1 heavy chain (Cr1) fused at the C-terminus
T2 chain: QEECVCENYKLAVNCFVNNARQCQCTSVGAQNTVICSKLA
Description: (§1) A direct ELISA was used for testing the reactivity of anti-EpCAM antibodies toward variant EpCAM mutants. Briefly, purified EpCAM EGF-1 fusion proteins (WT, Q24A, E25K, E26D, A35T, N37R, F39A, V40E, N41A, N42E, N43A, R44G, Q45A, Q47A or T49A) and irrelevant control (CEA-Cr1) were pre-diluted to 0.5 μg/ml in coating buffer (8.4 g NaHCO₃, 3.4 g Na₂CO₃ in 1 L H₂O, pH 9.5) and aliquoted (100 μl/well) into 96-well plates. […] Plates were then washed 3 times with PBST followed by the addition of the enzyme substrate TMB (BD Biosciences, Cat. No. 555214). […] The optical densities at 450 nm wavelength were measured on an ELISA plate reader.

EGFI-Cr1 N41A = biological target: T3, EGFI-Cr1 N41A (human, UniProt P16422 24-63); test: as above
T3 construct: not shown: The fused constant region of human immunoglobulin gamma 1 heavy chain (Cr1)
T3 chain: T2 chain with N18A, A20N
Description: as §1

EGFI-Cr1 Q24A = biological target: T4, EGFI-Cr1 Q24A (human, UniProt P16422 25-63); test: as above
T4 construct: not shown: The fused constant region of human immunoglobulin gamma 1 heavy chain (Cr1)
T4 chain: T2 chain with Q1A, A20N
Description: as §1

EGFI-Cr1 F39A = biological target: T5, EGFI-Cr1 F39A (human, UniProt P16422 24-63); test: as above
T5 construct: not shown: The fused constant region of human immunoglobulin gamma 1 heavy chain (Cr1)
T5 chain: T2 chain with F16A, A20N
Description: as §1

EGFI-Cr1 E26D = biological target: T6, EGFI-Cr1 E26D (human, UniProt P16422 24-63); test: as above
T6 construct: not shown: The fused constant region of human immunoglobulin gamma 1 heavy chain (Cr1)
T6 chain: T2 chain with E3D, A20N
Description: as §1

EGFI-Cr1 Q47A = biological target: T7, EGFI-Cr1 Q47A (human, UniProt P16422 24-63); test: as above
T7 construct: not shown: the constant region of human immunoglobulin gamma 1 heavy chain (Cr1) fused at the C-terminus
T7 chain: T2 chain with A20N, Q24A
Description: as §1

EGFI-Cr1 N42E = biological target: T8, EGFI-Cr1 N42E (human, UniProt P16422 24-63); test: as above
T8 construct: not shown: the constant region of human immunoglobulin gamma 1 heavy chain (Cr1) fused at the C-terminus
T8 chain: T2 chain with N19E, A20N
Description: as §1

EGFI-Cr1 N37R = biological target: T9, EGFI-Cr1 N37R (human); test: as above
T9 construct: not shown: The fused constant region of human immunoglobulin gamma 1 heavy chain (Cr1)
T9 chain: T2 chain with N14R, A20N
Description: as §1

EGFI-Cr1 R44G = biological target: T10, EGFI-Cr1 R44G (human, UniProt P16422 24-63); test: as above
T10 construct: not shown: the constant region of human immunoglobulin gamma 1 heavy chain (Cr1) fused at the C-terminus
T10 chain: T2 chain with A20N, R21G
Description: as §1

[4] = biological target: T11, EGFI-Cr1 wild type (first EGF-like repeat of human EpCAM fused to the constant region of human immunoglobulin … (human, UniProt P01857-1 99-330 = IgG part)); test: as above
T11 construct: cDNA covered aa 1-63; Expressed in COS-7 cells; also called WT; EpCAM EGF-1 fusion protein WT
Description: as §1

EGFI-Cr1 V40E = biological target: T12, EGFI-Cr1 V40E (human); test: as above
T12 construct: not shown: The fused constant region of human immunoglobulin gamma 1 heavy chain (Cr1)
T12 chain: T2 chain with V17E, A20N
Description: as §1

EGFI-Cr1 A35T = biological target: T13, EGFI-Cr1 A35T (human, UniProt P16422 24-63); test: as above
T13 construct: not shown: The fused constant region of human immunoglobulin gamma 1 heavy chain (Cr1)
T13 chain: T2 chain with A12T, A20N
Description: as §1

EGFI-Cr1 T49A = biological target: T14, EGFI-Cr1 T49A (human, UniProt P16422 24-63); test: as above
T14 construct: not shown: the constant region of human immunoglobulin gamma 1 heavy chain (Cr1) fused at the C-terminus
T14 chain: T2 chain with A20N, T26A
Description: as §1

EGFI-Cr1 Q45A = biological target: T15, EGFI-Cr1 Q45A (human, UniProt P16422 24-63); test: as above
T15 construct: not shown: the constant region of human immunoglobulin gamma 1 heavy chain (Cr1) fused at the C-terminus
T15 chain: T2 chain with A20N, Q22A
Description: as §1

EGFI-Cr1 E25K = biological target: T16, EGFI-Cr1 E25K (human, UniProt P16422 24-63); test: as above
T16 construct: not shown: The fused constant region of human immunoglobulin gamma 1 heavy chain (Cr1)
T16 chain: T2 chain with E2K, A20N
Description: as §1

B1: murine monoclonal antibody 12H8 (antibody, mouse IgG2a, V domains shown)
VH: QIQLVQSGPELKKPGETVKISCKTSGYTFTDYSMHWVNQAPGKGLKWMGWINTETGEPTYTDDFKGRFAFSLETSASTAYLQINNLKNEDTATYFCARTAVYWGQGTTLTVSS
VL: DIQMTQSPSSLSASLGERVSLTCRASQEISGSLSWLQQKPDGTIKRLIYAASTLNSGVPKRFSGRRSGSDYSLTISSLESEDFVDYYCLQYSSYPWSFGGGTKLEIKR
notes: Mouse IgG2a, kappa, from hybridoma; also called m342-12H8.3; m12H8
% Annexin V/PI-positive cells, DLD-1, 1.0 µg/ml mAb [1]: 61% | % Annexin V/PI-positive cells, DLD-1, 3.0 µg/ml mAb [1]: 67% | % Annexin V/PI-positive cells, DLD-1, 10 µg/ml mAb [1]: 72% | % Annexin V/PI-positive cells, FaDu, 1.0 µg/ml mAb [1]: 42% | % Annexin V/PI-positive cells, FaDu, 3.0 µg/ml mAb [1]: 43% | % Annexin V/PI-positive cells, FaDu, 10 µg/ml mAb [1]: 44% | % Annexin V/PI-positive cells, LNCaP, 1.0 µg/ml mAb [1]: 61% | % Annexin V/PI-positive cells, LNCaP, 3.0 µg/ml mAb [1]: 67% | % Annexin V/PI-positive cells, LNCaP, 10 µg/ml mAb [1]: 58% | % Annexin V/PI-positive cells, NCI-H520, 1.0 µg/ml mAb [1]: 24% | % Annexin V/PI-positive cells, NCI-H520, 3.0 µg/ml mAb [1]: 29% | % Annexin V/PI-positive cells, NCI-H520, 10 µg/ml mAb [1]: 34% | % Annexin V/PI-positive cells, NCI-N87, 1.0 µg/ml mAb [1]: 67% | % Annexin V/PI-positive cells, NCI-N87, 3.0 µg/ml mAb [1]: 62% | % Annexin V/PI-positive cells, NCI-N87, 10 µg/ml mAb [1]: 66% | % Annexin V/PI-positive cells, NIH:OVCAR-3, 1.0 µg/ml mAb [1]: 59% | % Annexin V/PI-positive cells, NIH:OVCAR-3, 3.0 µg/ml mAb [1]: 62% | % Annexin V/PI-positive cells, NIH:OVCAR-3, 10 µg/ml mAb [1]: 63% | % Annexin V/PI-positive cells, T-47D, 1.0 µg/ml mAb [1]: 49% | % Annexin V/PI-positive cells, T-47D, 3.0 µg/ml mAb [1]: 54% | % Annexin V/PI-positive cells, T-47D, 10 µg/ml mAb [1]: 56% | % of Annexin V + PI staining (untreated background subtracted), NCI-H358, 10 µg/ml mAb, Exp1 [2]: 36% | % of Annexin V + PI staining (untreated background subtracted), NCI-H358, 10 µg/ml mAb, Exp2 [2]: 33% | % of Annexin V + PI staining (untreated background subtracted), NCI-H358, 10 µg/ml mAb, Exp3 [2]: 31% | % of Annexin V + PI staining (untreated background subtracted), NCI-H358, 10 µg/ml mAb, Exp4 [2]: 40% | % of Annexin V + PI staining (untreated background subtracted), NCI-H358, 10 µg/ml mAb, Exp5 [2]: 28% | MFI [3]: 6650 MFI | relative binding activity (% of WT) (EGFI-Cr1 N43A): 96% | relative binding activity (% of WT) (EGFI-Cr1 N41A): 81% | relative binding activity (% of WT) (EGFI-Cr1 Q24A): 0% | relative binding activity (% of WT) (EGFI-Cr1 F39A): 96% | relative binding activity (% of WT) (EGFI-Cr1 E26D): 94% | relative binding activity (% of WT) (EGFI-Cr1 Q47A): 93% | relative binding activity (% of WT) (EGFI-Cr1 N42E): 23% | relative binding activity (% of WT) (EGFI-Cr1 N37R): 94% | relative binding activity (% of WT) (EGFI-Cr1 R44G): 91% | relative binding activity (% of WT) [4]: 100% | relative binding activity (% of WT) (EGFI-Cr1 V40E): 93% | relative binding activity (% of WT) (EGFI-Cr1 A35T): 95% | relative binding activity (% of WT) (EGFI-Cr1 T49A): 94% | relative binding activity (% of WT) (EGFI-Cr1 Q45A): 89% | relative binding activity (% of WT) (EGFI-Cr1 E25K): 1%
